System: Klebsiella pneumoniae
Assay: Growth inhibition by induced E. coli antisense RNA in Klebsiella pneumoniae
Format: cell-based
Parameters: key: +: a positive in Table V below means that at least 10 fold more cells were required to observe a colony on the induced plate than on the non-induced plate; −: If there was no effect of antisense RNA expression in a microorganism, the clone is minus in Table V below
Settings: antisense RNA expression induced with IPTG, serial dilution plating
Experimental: To study the effects of transcriptional induction in liquid medium, growth curves were carried out by back diluting cultures 1:200 into fresh media with or without 1 mM IPTG and measuring the OD450 every 30 minutes (min). To study the effects of transcriptional induction on solid medium, 10^2, 10^3, 10^4, 10^5, 10^6, 10^7 and 10^8 fold dilutions of overnight cultures were prepared. Aliquots of from 0.5 to 3 μl of these dilutions were spotted on selective agar plates with or without 1 mM IPTG. After overnight incubation, the plates were compared to assess the sensitivity of the clones to IPTG.
Molecule No. EcXA190, encoding a portion of the b3052 gene of Escherichia coli, was either transformed directly into Enterobacter cloacae, Salmonella typhimurium and/or Klebsiella pneumoniae or subcloned into an expression vector functional in these species and the subclones transformed into these organisms. Suitable expression vectors are well known in the art. These expression vectors were introduced into Enterobacter cloacae, Salmonella typhimurium and/or Klebsiella pneumoniae cells that were then assayed for growth inhibition according to the method of Example 1. After growth in liquid culture, cells were plated at various serial dilutions and a score determined by calculating the log difference in growth for INDUCED vs. UNINDUCED antisense RNA expression as determined by the maximum 10 fold dilution at which a colony was observed. If there was no effect of antisense RNA expression in one organism, the clone is given a score of zero “0” in that organism. In contrast, a score of “8” means that 10^8 times more cells were required to observe a colony formed on the induced state than in the non-induced state under the conditions used and in that organism.
In addition, the above methods were validated using other antisense nucleic acids which inhibit the growth of E. coli which were identified using methods similar to those described above. Expression vectors which inhibited growth of E. coli upon induction of antisense RNA expression with IPTG were transformed directly into Enterobacter cloacae, Klebsiella pneumonia or Salmonella typhimurium. The transformed cells were then assayed for growth inhibition according to the method of Example 1. After growth in liquid culture, cells were plated at various serial dilutions and a score determined by calculating the log difference in growth for INDUCED vs. UNINDUCED antisense RNA expression as determined by the maximum 10 fold dilution at which a colony was observed. If there was no effect of antisense RNA expression in a microorganism, the clone is minus in Table V below. In contrast, a positive in Table V below means that at least 10 fold more cells were required to observe a colony on the induced plate than on the non-induced plate under the conditions used and in that microorganism.

B1: EcXA137: antisense clone insert to E. coli proA, thrW (nucleic acid, listed as Escherichia coli)
antisense: CTTTTTACGGACAAACAATCATGCAACCAGAAGTTGAAGTATTAACCGATCATAATGAGCTAATTTGTTCGAGCTTTATTGAACACATTGCCAACACATTAAATTTAGGAGTGGTGTACAACTAAACCTGCAGCCAAGGATGTATAGTGAGCGAAGCCCTATCAGGCCTTTTTGGTCAGTAGATAAGATTGATCTTCGTTGATAGAATTTACTTACACCAGCTGTTACATTAAGATAATTTTTTGGTGGGAGAATGATAAGATCTTACGTAACAATTTGATTTTAATGGTGCCGATAATAGGAGTCGAACCTACGACCTTCGCATTACGAATGCGCTGCTCTACCAACTGAGCTATATCGGCCCTGAAAGGACATGTTCACGAACGTGAATCACGGTGGACAAGGTTAAAACTAACCGGGCGATGCGTCAATGGCCTTGTGAATCAAATGGCTACTTTTGCATCACCCGGTTTTATTTACGCACGAATGGTGTAATCACCAATGCCGATCCACTTGTAAGTGGTCAAGTGCTTNCAGCCCCATTGGGCCACGCGCCGTGGAGTTTTTGTGTGCTTACCGGCACTTTCGCACCCAGACCAAACTGGCCGCCGTCGGTAAAACGCGTAGAGGCGTTACGTAAACAGCGGACGAATCCACTTCGTNACAAAACGCTTGGCGTTGGCATATCGCGGGTCANGATCGCAATCGGAGTGTTGTGTGCCCGGGTTN
modifications: misc_feature (1)...(729): n = A,T,C or G
notes: antisense clone insert to E. coli proA, thrW
B1 was tested, and the “Sensitivity of K. pneumoniae to antisense nucleic acid (growth inhibition, induced vs. uninduced)” value was “−”.

B2: EcXA138: antisense clone insert to E. coli yhaC (nucleic acid, listed as Escherichia coli)
antisense: AGCCATTGTCCGGAGAATTTTCGTCTTTCTCGAGGGTATTATCTGAAAGTAACTCTTCTGAGCTAGAGTCTTCTATGTTTAAATCCATAGTATAATTAATTTGGGGGACGACCAGATAAGCATTTTCTTTGGTATTTTCATAATCTTCAATGATTATATCCGATGTAATCATATATTTTTTCTGATGAGAATTCTTTCATCTCTGTTAATTTAATTCTGTTCAAGCAATTGATGATTTTCGATGAGCTTTTATATATTTCTTTTGTTAATTCATTTTCTAATTTATCTGTAAGAGTTGCCCTTGG
In the case of B2, the “Sensitivity of K. pneumoniae to antisense nucleic acid (growth inhibition, induced vs. uninduced)” value is reported as “−”.

B3: EcXA130: antisense clone insert to E. coli atpE, atpB (nucleic acid, listed as Escherichia coli)
antisense: CATCATCACAGCGGCAGCCATGTACAGCAGATCCATATTCAGGTTTTCCATGACAGTCTCCAGTTTGTTTCAGTTAAAACGTAGTAGTGTTGGTAAATTAATGTTCTTCAGACGCCATCGACAGATAGACGATCGTCAGAACCATGAAGATGAAGGCTTGCAGCGTAATGATCAGGATGTGGAAAATGGCCCACGGCACATTCAGGATCCACTGTGACCACCACGGCAACAGACCAG
In the case of B3, the “Sensitivity of K. pneumoniae to antisense nucleic acid (growth inhibition, induced vs. uninduced)” value is reported as “−”.

B4: EcXA128: antisense clone insert to E. coli nagE (nucleic acid, listed as Escherichia coli)
antisense: CGCTGGAAAAAACCTAAAATATTCATCTTATTCCCCCTACGAGAACCCTATTTGGCTCGTTTCAAGCCGTATTTTTATTTTGCTGCAAATTGTACTGCCGATGTTCTGTAATCAGATTGTTAGATCATCTGCTACAGAGTGTGTGAAAATTTAATTCGTATCGCAAATTAAACGCGTGTCTTTTGTGAGTTTTGTCACCAAATATCGTTATTATCACTCCCTTTTACTGGCTAAACCAGAAAACTTATTT
In the case of B4, the “Sensitivity of K. pneumoniae to antisense nucleic acid (growth inhibition, induced vs. uninduced)” value is reported as “−”.

B5: EcXA126: antisense clone insert to E. coli yicC (nucleic acid, listed as Escherichia coli)
antisense: CGATGTTCTGAATCTGCTCGCGCATCTGCTCAATCAACACTTTCAGCTCGATGGCGGAGTTTGTCACTTCGGCATTGATAGACTTCGACGCAAGAGTGTTCGACTCGCGGTTGA
For B5, the “Sensitivity of K. pneumoniae to antisense nucleic acid (growth inhibition, induced vs. uninduced)” value was “−”.

B6: EcXA125: antisense clone insert to E. coli yiiL (nucleic acid, listed as Escherichia coli)
antisense: TGTCGGTAAACAATGACAATTTGAGACAGAGTGAAAGGTCAGATTTGCGGAGTAATGCACATAATGGTTATTTAAATAAACCACATGAATCATTAATGGGTTATTCATTATTTTTGTGATTTACTCACAATGTATCAGGGAAATATAACTTACCGGGAGATGTAATATGTTTAATTTTTCAAATCGAAATTTAAAATATTGTGCCGGAGGCATCTCTGGCACATTGGGCAATTACGGCA
With B6 the “Sensitivity of K. pneumoniae to antisense nucleic acid (growth inhibition, induced vs. uninduced)” value was “−”.

B7: EcXA129: antisense clone insert to E. coli yadC, yadK (nucleic acid, listed as Escherichia coli)
antisense: GTATTACAACAAGAATACAGTGCTAAAAAAAGAATGTACCTGAAGATAGTCTTCATTTTTACTCCAATGTTTCTTTATTGTTATGGTTTGCGCTGTTTTTGTTTGTTATTCGTAGTAAATATCCACTAACACATGGCTCATAAGTTGACCAGATGTAACACTCAATGCAGGATCGATTTTTTGCATTCGGGTGCTAAATTTCCAGGATGAACCATTCATGTCATCCGACATTACTGG
B7 was tested, and the “Sensitivity of K. pneumoniae to antisense nucleic acid (growth inhibition, induced vs. uninduced)” value was “−”.

B8: EcXA141: antisense clone insert to E. coli rfc (nucleic acid, listed as Escherichia coli)
antisense: CGATTATAGGGCTGACCAAATACATGGATAGATAATATGCCATCCCCCCAGGCAGTCCACGTAAAAAGAGCATATACAAGGAGAATAGAACACCTACAGCTGTAATAAGATAAACATAATGTTTTACTCTATTAACACCTACGATGAATGCATAAGAGATGATAACCATAAAGACAATTTGCTTACCAGTATTCAGTATAATTGCAAAGATGAATACAATAAAAACAAGTAAAGTAAATGTTTTACTTACCTTTGTATTAGTAAATTTTTTA
B8 was tested, and the “Sensitivity of K. pneumoniae to antisense nucleic acid (growth inhibition, induced vs. uninduced)” value was “−”.

B9: EcXA139: antisense clone insert to E. coli b0874 (nucleic acid, listed as Escherichia coli)
antisense: AGGTTACTGGCGAGGTTATCGAGAAACGCCAGACTGATACCCATAAAAAAGAGAATAAGGTAAACCATCCAGCTTAATAGCTGATTAATAACTTTTAACGCAGCTTGTTGGCGAAGCGGAATGAGGTAACCCACAATCAGGGGAACCAGAATGATTAACAGCCCAGAAAACATGAAAACCCAGTCCTTGCAAAGATGAAGTCGAAATGCGCGATGACACACTACTGAAAGCGGAAGGACGAGTAAAGTTGCAATTAAAAGGAAATGTTATGCATAAGGAGCAGTAGAGTATTCGTTTTCATTTAAAGATATTCTTGCGCTTTAATTACAAACTGCACCGATGTTGGTGGCGTCAAAATCGCCGAGGCGTTCCCTGAAGGCCGGGGCAGCCCACATGGATGTGGGCTGAGGGCGCGTTTTACAGGG
In the case of B9, the “Sensitivity of K. pneumoniae to antisense nucleic acid (growth inhibition, induced vs. uninduced)” value is reported as “−”.

B10: EcXA121: antisense clone insert to E. coli yjfQ (nucleic acid, listed as Escherichia coli)
antisense: TGATCGATCAGGTAATTTGCCAGCGGTAGATAATTAGTGATGATTTGCACTGGCTTGCCACACATTTCCCGCCCAAGCAGAAACGCGGTGGAGCCGCAGTTGATGACTACGCTTTCGCCCGGATTAACCAGCTGCGAGGCCGCTTTAGCGATACGTACTTTTTCATCGTGATTCTGCGCCTGATGCAGATTCATCGGCGTCCAGCGCGGGCGCTGTTGGGTAATAGCTTCTGCGCCATTGCGCACTTTTTTCAGTTTGCCGCTTTCGTCAAGTTTATTGA
In the case of B10, the “Sensitivity of K. pneumoniae to antisense nucleic acid (growth inhibition, induced vs. uninduced)” value is reported as “−”.

B11: EcXA123: antisense clone insert to E. coli yheL (nucleic acid, listed as Escherichia coli)
antisense: CTGGTTTTAGCTTTTGCTTCGTAAACACGTAATAAAACGTCCTCACACAATATGAGGACGCCGAATTTTAGGGCGATGCCGAAAAGGTGTCAAGAAATATACAACGATCCCGCCATCACCAGGCCATCTGGCTGGGG
B11 was tested, and the “Sensitivity of K. pneumoniae to antisense nucleic acid (growth inhibition, induced vs. uninduced)” value was “−”.

B12: EcXA132: antisense clone insert to E. coli narV (nucleic acid, listed as Escherichia coli)
antisense: GGAGAGCGAAGGGCTATCCGGCCAGGGTGAAATTATCGCCGCGAACGCACAATTTGATATCGACGAGTAAAGTACTCAAACGGCGCGCTCCACACATGCACCAGTCGGGTGAACGGGAAGAGCAGGAAGATGGTCATTCCCAACACCAGATGCAGGCGGAAGACGAACGCTACGCCGTTGAGCATCTCTGACGATCCACCACGGAAAGTGA
In the case of B12, the “Sensitivity of K. pneumoniae to antisense nucleic acid (growth inhibition, induced vs. uninduced)” value is reported as “−”.

Source: patent US20020022718A1, “Genes identified as required for proliferation of E. coli” (priority 1999, published 2002)
